In US20150010526, “EVALUATION AND IMPROVEMENT OF NUCLEASE CLEAVAGE SPECIFICITY” (President and Fellows of Harvard College, published 2015):

B1: VF2468 site 1 VEGF-A promoter (dsDNA)
DNA 1: AGCAGCGTCTTCGAGAGTGAGGA
DNA 2: TCCTCACTCTCGAAGACGCTGCT
B2: VF2468 site 11 PTK2B (dsDNA)
DNA 1: AGCAGCGTCTCCCTTGAGTGATGG
DNA 2: CCATCACTCAAGGGAGACGCTGCT
B3: VF2468 site 87 (dsDNA)
DNA 1: AGCATTGTCTCATGTGAGTGAGGT
DNA 2: ACCTCACTCACATGAGACAATGCT
B4: VF2468 site 18 (dsDNA)
DNA 1: AGCAGAGTCAGACTTGAGTGAGGT
DNA 2: ACCTCACTCAAGTCTGACTCTGCT
B5: VF2468 site 23 (dsDNA)
DNA 1: AGCAGCGACGCCTGGGAGTGAGGT
DNA 2: ACCTCACTCCCAGGCGTCGCTGCT
B6: VF2468 site 79 (dsDNA)
DNA 1: AGCACCGTGGCTTCGAGTGAGGC
DNA 2: GCCTCACTCGAAGCCACGGTGCT
B7: VF2468 site 80 (dsDNA)
DNA 1: AGCACGGTCATGATGAGTGAGGC
DNA 2: GCCTCACTCATCATGACCGTGCT
B8: VF2468 site 68 PDE9A (dsDNA)
DNA 1: AGCACCGTCCCCCTCAGTGAGGC
DNA 2: GCCTCACTGAGGGGGACGGTGCT
B9: VF2468 site 72 (dsDNA)
DNA 1: AGAAACGTCGTGGAGGAGTGAGGG
DNA 2: CCCTCACTCCTCCACGACGTTTCT
B10: VF2468 site 73 (dsDNA)
DNA 1: AGCAAAGTCTGTACTGAGTGAGGG
DNA 2: CCCTCACTCAGTACAGACTTTGCT
B11: CCR5-224 site 9 (dsDNA)
DNA 1: GTCATCTTCATCAAAAGGAACTGCAAAAC
DNA 2: GTTTTGCAGTTCCTTTTGATGAAGATGAC
B12: CCR5-224 site 21 (dsDNA)
DNA 1: GTCAACCTCAACACCTACAGACTGCAAAAG
DNA 2: CTTTTGCAGTCTGTAGGTGTTGAGGTTGAC
B13: CCR5-224 site 3 BTBD10 promoter (dsDNA)
DNA 1: GTTTTCCTCATCAAAGCAAACTGCAAAAT
DNA 2: ATTTTGCAGTTTGCTTTGATGAGGAAAAC
B14: CCR5-224 site 16 (dsDNA)
DNA 1: GTCTTCCTGATGCTACCAAACTGGAAAAG
DNA 2: CTTTTCCAGTTTGGTAGCATCAGGAAGAC
B15: CCR5-224 site 1 CCR5 (dsDNA)
DNA 1: GTCATCCTCATCCTGATAAACTGCAAAAG
DNA 2: CTTTTGCAGTTTATCAGGATGAGGATGAC
B16: CCR5-224 site 25 WBSCR17 (dsDNA)
DNA 1: GTTATCCTCAGCAAACTAAAACTGGAACAG
DNA 2: CTGTTCCAGTTTTAGTTTGCTGAGGATAAC
B17: CCR5-224 site 11 TACR3 (dsDNA)
DNA 1: GTCATCTTCATCAGCATAAACTGTAAAGT
DNA 2: ACTTTACAGTTTATGCTGATGAAGATGAC
B18: CCR5-224 site 14 (dsDNA)
DNA 1: GTCCTGCTCAGCAAAAGAAACTGAAAAAG
DNA 2: CTTTTTCAGTTTCTTTTGCTGAGCAGGAC
B19: CCR5-224 site 15 KCNB2 (dsDNA)
DNA 1: ATGTTCCTCATCTCCCGAAACTGCAAATG
DNA 2: CATTTGCAGTTTCGGGAGATGAGGAACAT
B20: CCR5-224 site 2 CCR2 (dsDNA)
DNA 1: GTCGTCCTCATCTTAATAAACTGCAAAAA
DNA 2: TTTTTGCAGTTTATTAAGATGAGGACGAC

The binders below were run against VF2468 ZFN pair (artificial) (assay: cleavage_in_vitro; ZFN amount for 50% cleavage of 8 nM linear substrate, 4 h 37 C, 10 mM Mg acetate; FIG. 9 legend gives spacer as TCGAA). Conditions: tags: N-terminal FLAG, FokI cleavage domain.
VF2468 ZFN pair (artificial), sequence (chain, as listed by the source, chain 1 of 2): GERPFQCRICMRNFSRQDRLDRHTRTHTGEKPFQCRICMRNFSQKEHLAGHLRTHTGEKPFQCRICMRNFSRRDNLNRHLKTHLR
VF2468 ZFN pair (artificial), sequence (chain, as listed by the source, chain 2 of 2): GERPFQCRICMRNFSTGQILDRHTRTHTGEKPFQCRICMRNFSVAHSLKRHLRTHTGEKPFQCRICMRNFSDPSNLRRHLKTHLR
Procedure: (§1) FIGS. 6A-D. Expression and quantification of ZFNs. Western blots for CCR5-224 and VF2468 are shown (a) for the ZFN samples used in the in vitro selection, and (b) for quantification. (c) Known quantities of N-terminal FLAG-tagged bacterial alkaline phosphatase (FLAG-BAP) were used to generate a standard curve for ZFN quantification. […] (d) Gels are shown of activity assays of CCR5-224 and VF2468 on an 8 nM linear substrate containing one target cleavage site. The ZFNs were each incubated with their respective substrate for 4 hours at 37° C. DNA in the “+lysate” lane was incubated with an amount of in vitro transcription/translation mixture equivalent to that used in the 2.5 nM ZFN reaction. ZFN-mediated cleavage results in two linear fragments approximately 700 bp and 300 bp in length. 2 nM CCR5-224 and 1 nM VF2468 were the amounts required for 50% cleavage of the linear substrate.
(§2) Test substrates for CCR5-224 and VF2468 were constructed by cloning into the HindIII/XbaI sites of pUC19. PCR with primers “test fwd” and “test rev” and Taq DNA polymerase yielded a linear 1 kb DNA that could be cleaved by the appropriate ZFN into two fragments of sizes ˜300 bp and ˜700 bp. […] Reactions were purified with the Qiagen PCR Purification Kit and analyzed on 1% TAE-agarose gels.

B1 showed an EC50 of 1 nM.

Each binder was assayed against VF2468 ZFN pair expressed in K562 (artificial) (assay: cell_activity; K562). Conditions: tags: FokI cleavage domain.

Going from B2 to B3, the activity rises from 0.04 % indels to 0.6 % indels.

First: B4
Second: B5
The activity of the first is lower: 0.1 % indels for the first, 1.1 % indels for the second.

Going from B6 to B7, the activity rises from 0.029 % indels to 0.041 % indels.

Going from B8 to B9, the activity falls from 0.28 % indels to 0.042 % indels.

In the case of B10, the activity is reported as 1.3 % indels.

Each binder was assayed against CCR5-224 ZFN pair expressed in K562 (artificial) (assay: cell_activity; K562). Conditions: tags: FokI cleavage domain.
CCR5-224 ZFN pair expressed in K562 (artificial), sequence (chain, as listed by the source, chain 1 of 2): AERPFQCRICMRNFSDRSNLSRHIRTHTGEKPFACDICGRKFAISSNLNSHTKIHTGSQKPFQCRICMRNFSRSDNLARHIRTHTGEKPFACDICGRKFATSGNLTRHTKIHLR
CCR5-224 ZFN pair expressed in K562 (artificial), sequence (chain, as listed by the source, chain 2 of 2): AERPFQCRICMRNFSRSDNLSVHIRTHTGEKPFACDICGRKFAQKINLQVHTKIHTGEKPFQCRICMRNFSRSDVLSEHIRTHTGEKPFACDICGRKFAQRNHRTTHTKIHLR
Procedure: We were unable to obtain site-specific PCR amplification products for three CCR5-224 sites and seven VF2468 sites and therefore could not analyze the occurrence of NHEJ at those loci. Taken together, these observations indicate that off-target sequences identified through the in vitro selection method include many DNA sequences that can be cleaved by ZFNs in human cells.
To deliver ZFN expression plasmids into cells, 15 μg of either active CCR5-224 ZFN DNA or empty vector DNA were used to Nucleofect 2×10⁶ K562 cells in duplicate reactions following the manufacturer's instructions for Cell Line Nucleofector Kit V (Lonza). GFP-positive cells were isolated by FACS 24 hours post-transfection, expanded, and harvested five days post-transfection with the QIAamp DNA Blood Mini Kit (Qiagen).
PCR for 37 potential CCR5-224 substrates and 97 potential VF2468 substrates was performed with Phusion DNA Polymerase (NEB) and primers “[ZFN] […] fwd” and “[ZFN] […] rev” (Table 9) in 1× Phusion HF Buffer supplemented with 3% DMSO. Primers were designed using Primer3³³. The amplified DNA was purified with the Qiagen PCR Purification Kit, eluted with 10 mM Tris-HCl, pH 8.5, and quantified by 1K Chip on a LabChip GX instrument (Caliper Life Sciences) and combined into separate equimolar pools for the catalytically active and empty vector control samples. PCR products were not obtained for 3 CCR5 sites and 7 VF2468 sites, which excluded these samples from further analysis. Multiplexed Illumina library preparation was performed according to the manufacturer's specifications, except that AMPure XP beads (Agencourt) were used for purification following adapter ligation and PCR enrichment steps. Illumina indices 11 (“GGCTAC”) and 12 (“CTTGTA”) were used for ZFN-treated libraries while indices 4 (“TGACCA”) and 6 (“GCCAAT”) were used for the empty vector controls. Library concentrations were quantified by KAPA Library Quantification Kit for Illumina Genome Analyzer Platform (Kapa Biosystems). Equal amounts of the barcoded libraries derived from active- and empty vector-treated cells were diluted to 10 nM and subjected to single read sequencing on an Illumina HiSeq 2000 at the Harvard University FAS Center for Systems Biology Core facility. Sequences were analyzed using Protocol 9 for active ZFN samples and empty vector controls.

Compared with B11, B12 is higher in activity: 0.035 % indels for the first, 0.06 % indels for the second.

Compared with B13, B14 is lower in activity: 0.07 % indels for the first, 0.019 % indels for the second.

First: B15
Second: B16
The activity of the first is higher: 44 % indels for the first, 0.12 % indels for the second.

Going from B17 to B18, the activity falls from 0.34 % indels to 0.025 % indels.

Compared with B19, B20 is higher in activity: 0.071 % indels for the first, 10 % indels for the second.

These binders were tested against CCR5-224 ZFN pair (artificial) (assay: cleavage_in_vitro; ZFN amount for 50% cleavage of 8 nM linear substrate, 4 h 37 C, 10 mM Mg acetate). Conditions: tags: N-terminal FLAG, FokI cleavage domain.
Procedure: as §1, §2

With B15 the EC50 was 2 nM.
